Laboratory results taken from patent publication US20260234220A1 (OSPEDALE SAN RAFFAELE S R L, published 2026).

B1: IgG BU.7 (antibody, V domains shown)
VH: LEWGPGLVKPSETLSLTCTVSGGSISSINYYWVWIRQPPGKGLEWIGNINYSGTTNYNPSLKSRVTISVDTSKNQFSLKLSSVTAADTAVYYCARQTYYYDRRGYYRPEPIEHWGQGTLVTVSS
VL: ELVMTQSPSFLSASVGDRVTITCRASQDVRSFLHWYQQRPGKAPKLLIYAASMVSSEVPSRFSGSGSETDFTLTIDGLQPEDVATYFCQQTYDTPLTFGGGTAVDIK
B2: IgG BU.54 (antibody, V domains shown)
VH: LEWGPGLVKASQTLSLTCTVSGGSISSRNFYWSWIRQPGGKGLEWIGRIYTSGSTNYNPSLKSRVTISLDTSKSQFSLKLSSVTAADTAVYYCARGTFYYDRSGNGRLDPLDYWGQGTLVTVS
VL: ELVMTQSPSSLSASVGDRVTITCQASQDISNYLNWYQQKPGKAPKLLIYDASNLETGVPSRFSGSGFGTHFTLTISSLQPEDFATYYCQQHDNLVTFGGGTKVEIK

Molecular target: S protein of SARS-CoV-1 on pseudotyped particles (SARS-CoV-1, UniProt P59594 14-1255)
Assay: cell-based or functional assay

Binder	neutralizing activity expressed as IC50 µg/ml (pseudovirus, luciferase) [µg/mL]
B1	1.3
B2	0.4
